The record followed here is US20150202287A1, “COMBINATION THERAPIES COMPRISING ANTI-ERBB3 AGENTS” (Merrimack Pharmaceuticals, Inc., priority 2012, published 2015).

The subject of series [1] is phospho-ErbB3 (pErbB3). The class given is cell-based. The conditions noted are these: up to 24 hours incubation. As to the method:
(§1) Cell lysates are probed for phospho-ErbB3 (pErbB3), and phospho-AKT (pAKT) by ELISA as described previously (Schoeberl et al, 2009) Inhibitor IC50 values are calculated by fitting dose-response data to a 4-parameter sigmoidal curve (GraphPad Prism®, GraphPad Software, Inc., La Jolla, Calif.).
Model-generated dose-response curves overlay the experimental data (FIG. 7a). […] Untreated and heregulin-stimulated cells were probed for pErbB3 and pAKT and the IC50 was calculated (FIG. 7b).
(§2) CRL-1504®), cells were incubated with serial dilutions of either inhibitor for 15 minutes, 1 hour, 4 hours, and 24 hours followed by stimulation with 5 nM heregulin for 10 min Amounts of pAKT and pErbB3 were measured by ELISA essentially as described.

For series [2], the system named is phospho-ErbB3 (pErbB3). Put plainly: Cell signaling assay, pErbB3 ELISA, ZR75-30. Type of series: cell-based. The conditions noted are these: ZR75-30 cells, stimulation with 5 nM heregulin for 10 min; read-out: IC50, reduction of pErbB3 levels. The procedure: as §1, §2
Series [3] deals with phospho-AKT (pAKT). Put plainly: Cell signaling assay, pAKT ELISA, ZR75-30. The class given is cell-based. The settings on record: ZR75-30 cells, stimulation with 5 nM heregulin for 10 min; read-out: IC50, reduction of pAKT levels. As to the method:
as §1, §2

The test system of series [4] is NCI-N87 cells. Put plainly: T-DM1 and heregulin dose matrix cell viability, NCI-N87. Type of series: cell-based. The settings on record: for cell viability: T-DM1 0 μg/ml, with MM-111 1 μM, 72 h. The procedure: Cells were allowed to adhere 16-20 hours at +37° C., 5% CO2. Cells were stimulated for 4 hours by adding 5 μl of culture media containing recombinant human NRG-1-β1 EGF domain (HRG1) bringing the final HRG1 stimulation concentration to 0, 0.313, 0.625, 1.25, 2.5, 5 or 10 nM. […] All conditions were assayed in biological quadruplicates. Cells were incubated for 72 h at +37° C., 5% CO2. Cell viability was determined by CellTiter-Glo® Luminescent Cell Viability Assay by adding 20 μl of reconstituted CellTiter-Glo reagent per well, incubating plated for 10 minutes at RT in an orbital shaker and reading the luminescence signal using Biotek™ Synergy H1 Hybrid Reader.

Series [5] relates to ErbB2 and ErbB3. Description: Affinity of MM-111 antigen-binding sites.

As to MM-111, the “inhibition of heregulin-induced ErbB3 activation relative to lapatinib” value in series [1] is recorded as “superior to lapatinib by greater than an order of magnitude”. In addition, the values for the IC50 in series [2] and in series [3] were 5 nM and 4 nM, respectively. The cell viability in series [4] (HRG 0 nM) is 100 % of control; in series [4] (HRG 0.313 nM), 101.4158 % of control; in series [4] (HRG 0.625 nM), 105.024 % of control; in series [4] (HRG 1.25 nM) it was 110.2781 % of control; in series [4] (HRG 2.5 nM), 118.0867 % of control; in series [4] (HRG 5 nM), 126.5145 % of control. Further, in series [4] (HRG 10 nM), the cell viability is on record as 146.1417 % of control. In addition, in series [5], the “affinity of ErbB2 antigen-binding site relative to ErbB3 antigen-binding site” value is on record as “about 30 times”.
In the case of “ado-trastuzumab emtansine [T-DM1, reference compound]”, in series [4] (HRG 0.313-10 nM), the “activity of T-DM1 with exogenous HRG” value is on record as “exogenous HRG decreases the activity of T-DM1”.
